This note sets out measurements from article PMC12572175.

The target in assay [1] is Protein A domain D. The assay is described as follows: BLI. As to conditions: chain shown with the change;; parent: 35.3 nM.
Assay [2] concerns the target Protein A domain D. In words: ELISA. As to conditions: chain shown with the change;; parent: 7.5 nM.

B1: sdAb n501 R95A (protein)
chain: EVQLVESGGGLVQPGGSLRLSCAASDFTFRNYEMSWVRQAPGKGLEWVSSISGSGGSTYYAHSLKGRFTISRDNSKNTLYLQMNSLAAEDTAIYYCARLRDGFNNGFDYWGQGTLVTVSS
Regarding B1, the Kd in assay [1] is 431 nM. In assay [2], the EC50 was 404 nM.

B2: sdAb n501 G16A (protein)
chain: EVQLVESGGGLVQPAGSLRLSCAASDFTFRNYEMSWVRQAPGKGLEWVSSISGSGGSTYYAHSLKGRFTISRDNSKNTLYLQMNSLRAEDTAIYYCARLRDGFNNGFDYWGQGTLVTVSS
As for B2, the Kd in assay [1] was determined as 96.3 nM. Moreover, the half-maximal effective concentration (EC50) in assay [2] was 92 nM.

B3: sdAb n501 T77A (protein)
chain: EVQLVESGGGLVQPGGSLRLSCAASDFTFRNYEMSWVRQAPGKGLEWVSSISGSGGSTYYAHSLKGRFAISRDNSKNTLYLQMNSLRAEDTAIYYCARLRDGFNNGFDYWGQGTLVTVSS
In the case of B3, the EC50 in assay [2] amounted to 200 nM.

B4: sdAb n501 S18A (protein)
chain: EVQLVESGGGLVQPGGALRLSCAASDFTFRNYEMSWVRQAPGKGLEWVSSISGSGGSTYYAHSLKGRFTISRDNSKNTLYLQMNSLRAEDTAIYYCARLRDGFNNGFDYWGQGTLVTVSS
In the case of B4, in assay [1], the dissociation constant Kd came to 136 nM. For the same molecule, in assay [2], the EC50 amounted to 709 nM.

B5: sdAb n501 Y67A (protein)
chain: EVQLVESGGGLVQPGGSLRLSCAASDFTFRNYEMSWVRQAPGKGLEWVSSISGSGGSTYAAHSLKGRFTISRDNSKNTLYLQMNSLRAEDTAIYYCARLRDGFNNGFDYWGQGTLVTVSS
Take B5: the concentration giving a half-maximal response (EC50) in assay [2] came out at 162 nM.

B6: sdAb n501 K72A (protein)
chain: EVQLVESGGGLVQPGGSLRLSCAASDFTFRNYEMSWVRQAPGKGLEWVSSISGSGGSTYYAHSLAGRFTISRDNSKNTLYLQMNSLRAEDTAIYYCARLRDGFNNGFDYWGQGTLVTVSS
As for B6, the equilibrium dissociation constant (Kd) in assay [1] was found to be 1360 nM. For the same molecule, the EC50 in assay [2] is 685 nM.

B7: sdAb n501 N92A (protein)
chain: EVQLVESGGGLVQPGGSLRLSCAASDFTFRNYEMSWVRQAPGKGLEWVSSISGSGGSTYYAHSLKGRFTISRDNSKNTLYLQMASLRAEDTAIYYCARLRDGFNNGFDYWGQGTLVTVSS
As to B7, the EC50 in assay [2] worked out at 151 nM.

B8: sdAb n501 T65A (protein)
chain: EVQLVESGGGLVQPGGSLRLSCAASDFTFRNYEMSWVRQAPGKGLEWVSSISGSGGSAYYAHSLKGRFTISRDNSKNTLYLQMNSLRAEDTAIYYCARLRDGFNNGFDYWGQGTLVTVSS
In the case of B8, the Kd in assay [1] is 1030 nM.

B9: sdAb n501 S79A (protein)
chain: EVQLVESGGGLVQPGGSLRLSCAASDFTFRNYEMSWVRQAPGKGLEWVSSISGSGGSTYYAHSLKGRFTIARDNSKNTLYLQMNSLRAEDTAIYYCARLRDGFNNGFDYWGQGTLVTVSS
Turning to B9, in assay [1], the dissociation constant (Kd) was 372 nM. For the same molecule, the EC50 in assay [2] worked out at 245 nM.
